How the values were obtained:
[1] = target: T1, SpCas9-His (Streptococcus pyogenes, UniProt Q99ZW2 1-1368); experiment: EMSA
[2] = target: T1, SpCas9-His; experiment: SPR

T1 sequence (Q99ZW2 whole entry): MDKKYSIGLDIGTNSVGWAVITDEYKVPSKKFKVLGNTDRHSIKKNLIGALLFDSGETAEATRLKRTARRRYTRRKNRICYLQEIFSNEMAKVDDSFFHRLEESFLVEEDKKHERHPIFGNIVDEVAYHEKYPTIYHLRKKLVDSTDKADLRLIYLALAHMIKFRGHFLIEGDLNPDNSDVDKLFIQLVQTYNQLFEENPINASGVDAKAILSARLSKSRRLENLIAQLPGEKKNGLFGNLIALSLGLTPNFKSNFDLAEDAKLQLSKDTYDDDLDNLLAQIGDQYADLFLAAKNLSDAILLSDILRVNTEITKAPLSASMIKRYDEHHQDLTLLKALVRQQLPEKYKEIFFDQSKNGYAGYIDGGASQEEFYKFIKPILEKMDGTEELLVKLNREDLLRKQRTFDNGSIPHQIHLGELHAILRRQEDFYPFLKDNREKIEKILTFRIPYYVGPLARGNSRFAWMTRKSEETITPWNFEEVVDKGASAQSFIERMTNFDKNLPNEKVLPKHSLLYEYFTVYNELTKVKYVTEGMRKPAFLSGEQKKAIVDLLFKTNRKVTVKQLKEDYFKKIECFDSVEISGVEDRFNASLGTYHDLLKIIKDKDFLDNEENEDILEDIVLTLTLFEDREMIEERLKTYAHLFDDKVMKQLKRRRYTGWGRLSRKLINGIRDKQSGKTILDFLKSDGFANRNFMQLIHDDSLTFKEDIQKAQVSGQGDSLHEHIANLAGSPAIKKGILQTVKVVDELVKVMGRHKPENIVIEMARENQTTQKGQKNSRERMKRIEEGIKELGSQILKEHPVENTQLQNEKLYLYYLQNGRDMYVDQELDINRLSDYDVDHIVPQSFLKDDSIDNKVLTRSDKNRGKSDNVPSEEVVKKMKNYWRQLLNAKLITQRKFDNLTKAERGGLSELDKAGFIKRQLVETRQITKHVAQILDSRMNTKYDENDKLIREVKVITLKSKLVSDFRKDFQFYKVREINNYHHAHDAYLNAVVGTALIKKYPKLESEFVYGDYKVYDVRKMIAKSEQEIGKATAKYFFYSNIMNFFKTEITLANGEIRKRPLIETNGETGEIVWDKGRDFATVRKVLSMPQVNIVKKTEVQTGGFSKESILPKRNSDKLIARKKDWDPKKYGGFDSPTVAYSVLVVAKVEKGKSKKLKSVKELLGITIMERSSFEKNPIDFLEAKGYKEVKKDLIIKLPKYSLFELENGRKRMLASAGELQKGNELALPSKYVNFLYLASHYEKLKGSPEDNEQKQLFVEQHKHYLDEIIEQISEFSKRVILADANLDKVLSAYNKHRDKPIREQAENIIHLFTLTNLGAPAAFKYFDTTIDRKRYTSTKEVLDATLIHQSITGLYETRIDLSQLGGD

B1: Loop-NC for EMSA (structured_DNA)
DNA: GAGGCTCTCACAGTAATGTGAGAGCCT
- binding result [1]: no binding

B2: SA-Ap (streptavidin aptamer) (structured_DNA)
DNA: GGTCCTCACACCGCTGTGTGCCGCAACACTGTGAGGACC
- binding result [1]: no binding

B3: Loop-NC for Biacore (structured_DNA)
DNA: GAGGCTCTCACAGTAATGTGAGAGCCT
- binding result [2]: no binding

B4: S21 for Biacore (structured_DNA)
DNA: GAGGCTCTCACATCGCGCCTTTCCCCAGCTTTCGGTGTGAGAGCCTC
- Kd [2]: 0.63 nM

B5: SS21 NM2 (structured_DNA)
DNA: GAGGCTCTCACAGCGCGCCTTTCGTTGTGAGAGCCTC
- binding result [1]: no binding

Reference: article PMC7897479
